# Measurements taken from patent publication US5573924.
# Assays:
# [1] = target: human CD27 ligand (CD27L), membrane-bound (human); assay: indirect binding assay on MP-1 cells (native CD27L): varying CD27/Fc, then 125I-mouse anti-human IgG; Scatchard analysis, low-affinity component
# [2] = target: human CD27 ligand (CD27L), membrane-bound (human); assay: indirect binding assay on MP-1 cells (native CD27L): varying CD27/Fc, then 125I-mouse anti-human IgG; Scatchard analysis, high-affinity component
# [3] = target: human CD27 ligand (CD27L), membrane-bound (human); assay: indirect binding assay on CV-1/EBNA cells transfected with cloned CD27L: varying CD27/Fc, then 125I-mouse anti-human IgG; Scatchard analysis, low-affinity component
# [4] = target: human CD27 ligand (CD27L), membrane-bound (human); assay: indirect binding assay on CV-1/EBNA cells transfected with cloned CD27L: varying CD27/Fc, then 125I-mouse anti-human IgG; Scatchard analysis, high-affinity component
substance,measurement,setting,value
CD27/Fc fusion protein (from UniProt P26842),Ka,[1],1.83e+08 M⁻¹
same,Ka,[2],1.58e+09 M⁻¹
same,Ka,[3],1.2e+08 M⁻¹
same,Ka,[4],2.7e+09 M⁻¹
